Patent publication US20210052637A1 (CONSIGLI NAZIONALE DELLE RICERCHE, published 2021)

Biological target: T1, folate receptor Frα (UniProt P15328 25-234, limits assumed)
T1 construct: whole, on cells; also called α-FR; folate receptor alpha
Test: flow cytometry on IGROV-1, KB and A431-tFR cells; 0.025 mg/mL antibody fragment on nanocubes, 4° C., 1 hour; detected with anti-myc primary antibody and Alexa-488 secondary antibody
Experimental: The A431-tFR and A431-MOCK cells provided by the IRCSS Foundation, National Cancer Institute, Milan, Italy, were grown in the modified Dulbecco culture medium (DMEM, Merck, Kenilworth, USA). IGROV-1 cells (ATCC, UK) were cultured in RPMI-1640 (RPMI-1640, Merck, Kenilworth, USA). The KB cells (ATCC, UK) were cultured in RPMI-1640 without folic acid (RPMI-1640 without folic acid, Merck, Kenilworth, USA). All culture media were added with 10% inactivated fetal bovine serum (FBS), 1% penicillin-streptomycin and 1% glutamine at 37° C., 95% humidity with 5% CO2. The cells were divided every 3-4 days before reaching confluence.
In these experiments, the functionalized nanocubes of the invention comprising the antibody fragment in a quantity of 0.025 mg/mL were incubated in PBS at 4° C. for 1 hour with 5×10⁵ cells of the cell lines indicated above. As a negative control, the non-functionalised nanocubes with polymer coating were used. Then, after three washes, the cells were incubated for 1 hour at 4° C. with the primary antibody that binds to the myc sequence of the C4 antibody fragment. Following a wash in PBS a secondary antibody conjugated to the fluorescent probe Alexa-488 was added to the cells, capable of binding the Fc portion of the primary antibody.

T1 sequence (P15328 25-234 limits assumed): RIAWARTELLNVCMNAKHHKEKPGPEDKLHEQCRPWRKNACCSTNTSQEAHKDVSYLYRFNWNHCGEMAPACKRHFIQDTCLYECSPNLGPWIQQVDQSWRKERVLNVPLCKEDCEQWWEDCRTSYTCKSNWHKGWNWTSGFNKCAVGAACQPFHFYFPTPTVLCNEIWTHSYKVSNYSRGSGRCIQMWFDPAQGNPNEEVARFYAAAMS

binding result: binds
B1: single chain variable fragment of human antibody C4 (C4 scFv), attached to iron oxide nanocubes (scFv)
scFv: NVQLVESGGGLVQPGRSLRLSCTTSGFTFGDYAMIWARQAPGKGLEWVSSISSSSSYIYYADSVKGRFTISRDNAKNSLYLQMNSLRAEDTAVYYCARERYDFWSGMDVWGKGTTVTVSSGGGGSGGGGSGGSAQSALTQPASVSGSPGQSITISCTGTSSDVGSYNLVSWYQQHPGKAPKLMIYEGSKRPSGVSNRFSGSKSGNAASLTISGLQAEDEADYYCQSYDSSLSVVFGGGTKLTVLGAAAHHHHHHGAAEQ
modifications: histidine tag complexed to Ni2+ of PEG-NTA-Ni linker on the polymer-coated iron oxide nanocube
notes: In the assays the scFv was not free; It was held on polymer-coated cubic iron oxide nanoparticles through its histidine tag and PEG-NTA-Ni, with or without PEG-oxaliplatin; also called scFvC4; C4 antibody fragment
